{
  "source": "the nanobody polyreactivity screen of Harvey et al. (2022)",
  "data": [
    {"assay": "yeast display, Sf9 membrane polyspecificity reagent, FACS + sequencing; frameworks hold sequencing errors", "procedure,_shortened": "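A synthetic nanobody library was expressed on Saccharomyces cerevisiae BJ5465 by galactose induction for 36–48 hours. The library was stained for 1 hour at 4 °C with 10% biotinylated, detergent-solubilized Sf9 membrane reagent and enriched with streptavidin microbeads before FACS. Low and high (top ~1%) gates were set on anti-HA fluorescence for expression and streptavidin fluorescence for reagent binding, and each polyreactivity label reflects the gate of origin.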", "values": [
      {"sequence": "QVQLVESGGGLVQAGGSLRLSCAASGSIFGLYAMGWYRQAPGKERELVAAINQSGGSTSYADSVKGRFTISRDNAKNTVYLQMNSLKPEDNAVYYCNRVRLNTEGFDYWGQGTQVTVSS", "polyreactivity (PSR sort gate)": "low polyreactivity"},
      {"sequence": "QVHLEESGGGIVQAGGSLRLSCAASGFTFPVHAMGWYRQAPGKERQLVAAIRWIGGDTYYADSVKGRFTISRDNAKNTVYLQMNSLKPEDTAVYYCAAEDTDDYSIWFEYWGQGTQVTVSS", "polyreactivity (PSR sort gate)": "high polyreactivity"},
      {"sequence": "QVQLVESGGGLVQAGGSLRLSCAASGTTFPRYAMGWYRQAPGKERELVAAISSGGSTYYADSVKGRFTISRDNAKNTVYLQMNRLKPEDTAVYYCNARRSRSRYDYWGQGTQVTVSS", "polyreactivity (PSR sort gate)": "high polyreactivity"},
      {"sequence": "QVQLVESCGGLVQAGGSLRLSCAATGLIIRGNDMVWYRQAPWKERELVAGINSSGSTNYADSVKVRFTISRDNAKNTVYLQMNSLKPEDTAVYYCAARAIVSFDYWGQGTQVTVSS", "polyreactivity (PSR sort gate)": "low polyreactivity"},
      {"sequence": "QVQLVESGGGLVQAGGSLRLSCAASGSISGLYAMGWYRQAPGKERELVARIRWRGDSTYYADSVKGRFTISRDNAKNTVYLQMNSLNPEDTAVYYCAASAYSGKVNKYNYWGQGTQVTVSS", "polyreactivity (PSR sort gate)": "high polyreactivity"},
      {"sequence": "QVQLVESGGGLVQAGGSLRLSCAASGSTFPTYAMGWYRQAPGKERELVAAISFSGARTYYADSVKGRFTISRDNAKNTVYLQMNSLKPEDTAVYYCAKASSYSRRYEYWGQGTQVTVSS", "polyreactivity (PSR sort gate)": "high polyreactivity"},
      {"sequence": "QVQHVESGGGLVQAGGSLRLICAASGRIFLRNAMGWYRQAPGKERELVATITSRGGSTYYADAVKGRFTISRDNAKNTVYLQMNRLKPEDTAVYNCAAVPRRYRGFGYVYGGFYYWGQGTQVTVSS", "polyreactivity (PSR sort gate)": "low polyreactivity"},
      {"sequence": "QVQLQESCGALVQAGGTLRLSCAASGSIFEQLDMGWNRQAPGKELEFVAAIGTGSTTYYADSVKGRFSISRDNAKNTVYLQRNSLKPEDTAVYYCAVTYSVYLPFRYWGQGTQVTVSS", "polyreactivity (PSR sort gate)": "high polyreactivity"},
      {"sequence": "QVQLVESGGGLVQAGGSLRIRCAASGGIFPPNAMGWYRHPPGKERELVASISSDGSTNYADSVKGRFTISRDNAKNNVILQMNSLKPEDTAVFYCNATHEAFELDYWGQGTQVNVSS", "polyreactivity (PSR sort gate)": "low polyreactivity"},
      {"sequence": "QLQLVESGGGLVQAGGSLRLSCAASGITFPFYDMGWYRQAPGKEREFVAAISWSAGNTYYADSVKGRFTISRDNAKNTVYLQMNSLKPEDTAVYYCAAYGPSYEEDYWGQGTQVTVSS", "polyreactivity (PSR sort gate)": "high polyreactivity"},
      {"sequence": "QVQLVESGGGLVQAGGSLRLSCAASGFIFTLNAMGWYRQAPGKERELVASISSGVSTNYADSVKGRFTISRDNAKNTVYLQMNSLKPEDTAVYYCAARDTGPDGFEGDYWGQGTQVTVSS", "polyreactivity (PSR sort gate)": "low polyreactivity"},
      {"sequence": "QVQLVESGGGLVQAGGSLRLSCAASGSIFVLNAMGWSRQAPGKETELVAAISYSGTGTYYADSVKGRFTISRDNAKNTVYLQMNSLKPEDTAVYDCAADYYYRYRIYDYWGQGTQVTLSS", "polyreactivity (PSR sort gate)": "low polyreactivity"},
      {"sequence": "QVHLVESGGGLVQAGCSLRLSCAASGYIFVRNAMGWYRQAPGKERELVAAISGSGGSTYYADSVKGRFTISRDNAKNTVYLQMNSLKPEDTAVYYCASDPYHWRWGWRHDYWGQGTQVTVSS", "polyreactivity (PSR sort gate)": "low polyreactivity"},
      {"sequence": "QVQLVESGGGLVQAGGSLRLSCAASGSIFYFNAMGWYRRAPGKERELVAGISARGGSTYYADSVKGRFTISRDHAKNTVYIQMNSLKPEDTAGYYCAAYGTTRSRKRAFAWWGYDYWGQGTQVTVSS", "polyreactivity (PSR sort gate)": "low polyreactivity"},
      {"sequence": "QVQLVESGGGLVQAGGSLRLSCAASGFTFSAYAMGWYRQAPGKERELVASITRSGGSTYYADSVKGRFTISRDNAKNTVYLQMNCLKPEDTAVFYCAKSDRPWWGYYYQFDYWGQGTQVSVSS", "polyreactivity (PSR sort gate)": "low polyreactivity"},
      {"sequence": "QVQLVESGGGLVQAGGSLRLSCAASGRIFGAYAMGWYRQAPGKERELVATITKRGGSTFYADSVKGRFTISRDNAKNTVYVKMNSLKPEDTAVYYCAVVRYSPKRYWYGYWGQGTQVTVSS", "polyreactivity (PSR sort gate)": "high polyreactivity"},
      {"sequence": "QVQLVESGGGLVQAGGSLRLSCAASGRIFRYYAMGWYRQAPGKERELVAVINWSGGSTYYADSVKGRFTISRDNAKNTVYFQMNSLKPEDTAVYYCNVYSVYPQFNYWGQGTQVTVSS", "polyreactivity (PSR sort gate)": "high polyreactivity"},
      {"sequence": "QVQLVESGGGLVQAGGSLRLSCAASGFIFAYYAMGWYRQATGKERELVAGITRGSSTYYADSVKGRFTISRDNAKNTVYLQMNSLKPEDTAVYYCARGYTWFYAVWPEYDYWGEGTQVTVSS", "polyreactivity (PSR sort gate)": "high polyreactivity"},
      {"sequence": "QVQLVESGGGLVQAGGSLRLSCAASGRILPVYAMGWYRQAPGKERELVAAINDSGTNTNYADSVKGRFTISRDNAKNTVYLHMNSLKPEDTAVYYCAASSGPRQGYSYRPHKSYGSWGQGTQVTVSS", "polyreactivity (PSR sort gate)": "low polyreactivity"},
      {"sequence": "QVQLVESGGGLVQAGGSLRLSCAASGSTFRVNAMGWYRQAPGKEREFVATIRGGGVRTYYADSVKGRFTISRDNAKNTVYLQMNSLKPEDTAVYYCAVAGGTPGAYRRFNYWGQGTQVTVSS", "polyreactivity (PSR sort gate)": "high polyreactivity"},
      {"sequence": "QVQLVESGGGLVQAGGSLRLSCAASGIIFSWYDMGWYRQAPGKERELVAAISSGDRTNYADSVKGRFTISRDNAKNTVYLQMNSLKPEDTAVYYCAADLFPIAGEYDYWGQGTQVTVSS", "polyreactivity (PSR sort gate)": "high polyreactivity"},
      {"sequence": "QVQLQESGGGLVQAGGSLRLSCAASGTIFRFRYMGWHRQAPVKERELVAGINGGTTTYYADSVIGRFTISRDNAKNTVYLQMNSLKADDTAVYNCAAGASRLTYYDYWGQGTQVTVSS", "polyreactivity (PSR sort gate)": "low polyreactivity"},
      {"sequence": "QVQLVESGGGLVQAGGSLRLSCAASGSIFYRYVMGWYRQAPGKERELVAAITSDGSTNYADSVKGRFTISRDNAKNTVYLQMNSLKPEDTAVYYCNARSYRGRFDYWGQGTQVTVSS", "polyreactivity (PSR sort gate)": "low polyreactivity"},
      {"sequence": "QVQLVESGGGLVQAGGSLRLSCADSGSIFLIYAMGWYRQAPGKERELVATINRGDNTYYADSVKGRFTISRDNAKITVYLQMYSLKPEDTADGYWGQGTQVTGSS", "polyreactivity (PSR sort gate)": "low polyreactivity"},
      {"sequence": "QVQLVESGGGLVQAGGSLRLSCAASGTTFVSNAMGWYRQAPGKERELVAAISKSGGSTYYADSVKGRFTISRDNAKNTVYLQMNSLKPEDTAVYYCAKYTAKSFYGQYDYWGQGTQVTVSS", "polyreactivity (PSR sort gate)": "high polyreactivity"},
      {"sequence": "QVQLVESGGGLVQAGGSLRLSCAASGLNFDKNAMGWYRQAPGNERELLAAITRSSGTTYYADSVKGRFTISRDNAKNTVYLQMNSLKPEDTAVYYCAARFIWGYWGVGYYSWGQGTQVTVSS", "polyreactivity (PSR sort gate)": "low polyreactivity"},
      {"sequence": "QVQLVESGGGLVQAGGSLRLSCAASGSILSFYAMGWYRQAPGKERELVATISRRGGSTYYADSVKGRFTISRDNAKNTVYLQMNSLKPEDTAVYYCNKPGLSAWTQSSQYEYDYWGQGTQVTVSS", "polyreactivity (PSR sort gate)": "high polyreactivity"},
      {"sequence": "QVQLVESGGGLLQAGGSLRLSCAASGFIFSLYAMGWYRQAPGKERELVASINRRGTSTFYADSVKGRFTISLDNAKKTVYLQMNSMKPEDTAVYYCNAYPVAAIRSTGSYDYWGQGTQVTVSS", "polyreactivity (PSR sort gate)": "low polyreactivity"},
      {"sequence": "QVQLVESGGGLVQAGGSLRLSCAASGSTFISYDMGWYRQAPGKERELVADITSVGGSTYYADSVKGRFTISRDNAKNTVYLQMNSLKPEDTAVYYCNAEAEWEEEGGSWGQGTQVTVSS", "polyreactivity (PSR sort gate)": "low polyreactivity"},
      {"sequence": "QVQLGESGGGLVQAGGSLRLICAASGRIFYRNAMGWYRQAPGKERELVAGISNRGGSTYYADSVKGRFTISRDNAKNTVYLQMNSLKPEDTAVYYCATVPFSPPSAGPEYDYWGQGTQVTVSS", "polyreactivity (PSR sort gate)": "high polyreactivity"},
      {"sequence": "QVQLVESGGGLVQARGSLRLSCAAYRITFGWYAMGWYRQAHAKERELVASISSSGSTNYADSVKGRFTISRDNAKNTVYLQMNSLKPEDTAVYYCNKDYRRRHYYIYVIEGDYWGQGTQVTVSS", "polyreactivity (PSR sort gate)": "low polyreactivity"},
      {"sequence": "QVQLVESGGGLVQAGGSLRLSCAASGRIWVYAMGWYRQAPGKERELVATITYNSGRTYYADSVKGRFTISRDNAKNTVYLQMNSLKPEDTAVYYCNADFWYSYRRGYGYWGQGTQVTVSS", "polyreactivity (PSR sort gate)": "high polyreactivity"}
    ]}
  ]
}
